The text below walks through data of patent US20250262210A1 (TRUSTEES OF COLUMBIA UNIVERSITY IN THE CITY OF NEW YORK, published 2025).

For one assay, the target named is CRYBG1 (human, UniProt Q9Y4K1 1-2131, limits assumed). The assay can be described thus: IP/MS, LZTR1 wild type-FLAG, U87. The essentials: (§1)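 Gel slices were reduced with 5 mM DTT, alkylated with 11 mM IAA and digested overnight at 37° C. with trypsin. Peptides were analysed on an Orbitrap Fusion Tribrid by LC-MS/MS.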
In the next assay the target is T1, USP47 (human, UniProt Q96K76 1-1375, limits assumed).
T1 sequence (looked up): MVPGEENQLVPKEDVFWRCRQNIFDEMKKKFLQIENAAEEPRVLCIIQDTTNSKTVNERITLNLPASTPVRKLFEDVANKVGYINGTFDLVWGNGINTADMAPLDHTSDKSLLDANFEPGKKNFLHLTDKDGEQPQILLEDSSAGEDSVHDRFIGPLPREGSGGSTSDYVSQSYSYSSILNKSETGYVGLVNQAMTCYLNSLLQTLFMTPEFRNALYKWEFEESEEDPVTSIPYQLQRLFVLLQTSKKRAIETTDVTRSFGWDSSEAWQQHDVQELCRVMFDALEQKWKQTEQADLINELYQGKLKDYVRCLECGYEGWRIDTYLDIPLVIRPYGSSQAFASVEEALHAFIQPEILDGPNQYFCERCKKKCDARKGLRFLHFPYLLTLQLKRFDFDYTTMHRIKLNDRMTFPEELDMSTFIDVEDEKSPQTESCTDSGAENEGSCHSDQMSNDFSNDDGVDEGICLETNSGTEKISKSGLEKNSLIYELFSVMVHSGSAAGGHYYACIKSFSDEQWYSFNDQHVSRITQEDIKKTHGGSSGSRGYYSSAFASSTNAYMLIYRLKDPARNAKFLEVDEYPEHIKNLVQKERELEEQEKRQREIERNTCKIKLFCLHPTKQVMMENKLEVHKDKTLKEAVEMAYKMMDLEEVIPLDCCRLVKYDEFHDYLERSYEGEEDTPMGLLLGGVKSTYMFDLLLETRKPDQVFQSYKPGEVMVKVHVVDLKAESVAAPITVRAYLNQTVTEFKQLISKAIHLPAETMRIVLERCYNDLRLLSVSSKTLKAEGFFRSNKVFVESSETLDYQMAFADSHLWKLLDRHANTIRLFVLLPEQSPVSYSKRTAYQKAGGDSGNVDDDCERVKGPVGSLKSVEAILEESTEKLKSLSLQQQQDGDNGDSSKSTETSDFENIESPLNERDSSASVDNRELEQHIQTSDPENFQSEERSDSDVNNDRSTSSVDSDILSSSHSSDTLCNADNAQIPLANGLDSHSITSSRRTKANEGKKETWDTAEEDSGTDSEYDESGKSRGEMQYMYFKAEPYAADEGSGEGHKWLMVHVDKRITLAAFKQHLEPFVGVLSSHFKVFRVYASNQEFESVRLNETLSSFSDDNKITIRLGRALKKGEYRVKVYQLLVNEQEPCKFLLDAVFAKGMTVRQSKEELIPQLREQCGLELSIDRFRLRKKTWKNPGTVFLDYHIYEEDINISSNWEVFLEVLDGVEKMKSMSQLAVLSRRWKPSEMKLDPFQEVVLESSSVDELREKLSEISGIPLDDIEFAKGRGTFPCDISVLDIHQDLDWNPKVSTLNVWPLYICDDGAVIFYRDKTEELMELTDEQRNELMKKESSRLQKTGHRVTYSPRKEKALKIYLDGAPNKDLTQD
The assay can be described thus: IP/MS, LZTR1 wild type-FLAG, U87. The essentials:
as §1

Sequence of CRYBG1 (Q9Y4K1 whole entry, the tested form may be a part): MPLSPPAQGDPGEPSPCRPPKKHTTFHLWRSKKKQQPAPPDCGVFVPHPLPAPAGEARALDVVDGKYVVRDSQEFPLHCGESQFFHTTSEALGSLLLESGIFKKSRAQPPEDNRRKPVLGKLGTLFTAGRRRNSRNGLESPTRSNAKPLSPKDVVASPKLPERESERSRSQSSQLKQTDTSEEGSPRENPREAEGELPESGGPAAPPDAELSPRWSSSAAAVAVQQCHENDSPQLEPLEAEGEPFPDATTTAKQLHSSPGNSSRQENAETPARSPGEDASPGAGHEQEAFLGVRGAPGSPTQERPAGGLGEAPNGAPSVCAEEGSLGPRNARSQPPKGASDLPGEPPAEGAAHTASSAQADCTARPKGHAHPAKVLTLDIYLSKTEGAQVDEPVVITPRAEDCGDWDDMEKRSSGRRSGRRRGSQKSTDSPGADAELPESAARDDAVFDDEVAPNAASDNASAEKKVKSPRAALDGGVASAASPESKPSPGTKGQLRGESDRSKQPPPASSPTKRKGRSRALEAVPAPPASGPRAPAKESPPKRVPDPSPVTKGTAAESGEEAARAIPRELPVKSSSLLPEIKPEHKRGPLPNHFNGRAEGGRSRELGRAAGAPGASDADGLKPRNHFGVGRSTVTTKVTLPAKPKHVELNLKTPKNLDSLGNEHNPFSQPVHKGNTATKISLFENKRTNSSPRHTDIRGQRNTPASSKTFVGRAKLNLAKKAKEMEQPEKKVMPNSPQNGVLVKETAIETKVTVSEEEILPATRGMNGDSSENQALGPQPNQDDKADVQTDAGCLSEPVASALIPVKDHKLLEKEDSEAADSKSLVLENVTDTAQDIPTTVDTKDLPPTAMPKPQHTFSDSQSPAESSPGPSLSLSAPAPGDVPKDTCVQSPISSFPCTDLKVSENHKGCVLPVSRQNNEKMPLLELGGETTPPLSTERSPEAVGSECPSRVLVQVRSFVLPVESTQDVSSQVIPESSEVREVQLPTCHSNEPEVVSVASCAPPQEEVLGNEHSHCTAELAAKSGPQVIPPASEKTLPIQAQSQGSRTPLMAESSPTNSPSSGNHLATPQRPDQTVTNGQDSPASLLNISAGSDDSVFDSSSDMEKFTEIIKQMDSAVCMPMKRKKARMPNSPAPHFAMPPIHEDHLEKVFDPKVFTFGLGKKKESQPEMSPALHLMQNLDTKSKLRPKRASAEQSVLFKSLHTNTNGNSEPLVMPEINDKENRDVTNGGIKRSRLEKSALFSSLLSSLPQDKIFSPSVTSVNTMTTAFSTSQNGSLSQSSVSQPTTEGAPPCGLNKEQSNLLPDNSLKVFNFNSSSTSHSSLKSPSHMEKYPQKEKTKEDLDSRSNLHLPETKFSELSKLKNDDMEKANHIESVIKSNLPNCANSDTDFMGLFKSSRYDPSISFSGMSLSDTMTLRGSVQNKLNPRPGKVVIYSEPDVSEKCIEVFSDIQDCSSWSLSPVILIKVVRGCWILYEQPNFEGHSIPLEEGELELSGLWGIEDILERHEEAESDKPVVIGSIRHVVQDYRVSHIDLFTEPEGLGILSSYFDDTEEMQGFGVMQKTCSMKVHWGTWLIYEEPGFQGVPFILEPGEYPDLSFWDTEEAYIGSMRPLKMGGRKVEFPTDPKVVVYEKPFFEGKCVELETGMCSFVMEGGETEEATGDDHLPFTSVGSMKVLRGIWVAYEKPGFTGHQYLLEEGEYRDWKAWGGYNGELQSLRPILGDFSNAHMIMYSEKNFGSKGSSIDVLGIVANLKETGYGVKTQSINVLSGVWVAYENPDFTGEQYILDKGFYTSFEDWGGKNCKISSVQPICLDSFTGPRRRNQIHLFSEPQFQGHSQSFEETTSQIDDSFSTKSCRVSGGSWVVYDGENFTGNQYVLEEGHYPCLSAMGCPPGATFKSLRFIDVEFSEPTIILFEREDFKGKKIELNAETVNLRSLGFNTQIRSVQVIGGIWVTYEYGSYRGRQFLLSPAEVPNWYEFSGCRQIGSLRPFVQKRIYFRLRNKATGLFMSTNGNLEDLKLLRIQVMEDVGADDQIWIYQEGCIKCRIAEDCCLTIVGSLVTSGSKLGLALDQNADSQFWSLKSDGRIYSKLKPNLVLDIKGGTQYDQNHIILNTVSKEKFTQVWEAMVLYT

B1: LZTR1-FLAG (other, human, UniProt Q8N653 1-840, looked up)
chain: MAGPGSTGGQIGAAALAGGARSKVAPSVDFDHSCSDSVEYLTLNFGPFETVHRWRRLPPCDEFVGARRSKHTVVAYKDAIYVFGGDNGKTMLNDLLRFDVKDCSWCRAFTTGTPPAPRYHHSAVVYGSSMFVFGGYTGDIYSNSNLKNKNDLFEYKFATGQWTEWKIEGRLPVARSAHGATVYSDKLWIFAGYDGNARLNDMWTIGLQDRELTCWEEVAQSGEIPPSCCNFPVAVCRDKMFVFSGQSGAKITNNLFQFEFKDKTWTRIPTEHLLRGSPPPPQRRYGHTMVAFDRHLYVFGGAADNTLPNELHCYDVDFQTWEVVQPSSDSEVGGAEVPERACASEEVPTLTYEERVGFKKSRDVFGLDFGTTSAKQPTQPASELPSGRLFHAAAVISDAMYIFGGTVDNNIRSGEMYRFQFSCYPKCTLHEDYGRLWESRQFCDVEFVLGEKEECVQGHVAIVTARSRWLRRKITQARERLAQKLEQEAAPVPREAPGVAAGGARPPLLHVAIREAEARPFEVLMQFLYTDKIKYPRKGHVEDVLLIMDVYKLALSFQLCRLEQLCRQYIEASVDLQNVLVVCESAARLQLSQLKEHCLNFVVKESHFNQVIMMKEFERLSSPLIVEIVRRKQQPPPRTPLDQPVDIGTSLIQDMKAYLEGAGAEFCDITLLLDGHPRPAHKAILAARSSYFEAMFRSFMPEDGQVNISIGEMVPSRQAFESMLRYIYYGEVNMPPEDSLYLFAAPYYYGFYNNRLQAYCKQNLEMNVTVQNVLQILEAADKTQALDMKRHCLHIIVHQFTKVSKLPTLRSLSQQLLLDIIDSLASHISDKQCAELGADI
notes: Expressed in HEK 293T, HeLa or U87 cells; used as cell lysate; also called LZTR1 wild type-FLAG; LZTR1 WT; not shown: FLAG tag at the C-terminus
For B1, the binding result in the assay with CRYBG1 and in the assay with USP47 was “binds” each time.
